Numbering of substitutions follows the chain as printed. Names and notes keep the numbering of the source. Where only a bound is given, the exact number is not on record here.

What all share (test): enzyme inhibition assay (fluorogenic substrate), Ki by Morrison's equation; fetuin-B variant titrated against enzyme; 37°C, 150 mM sodium chloride, 50 mM Tris-HCl pH 7.4, 0.01% Brij 35, triplicate; enzyme and substrate 1.0 nM and 195 µM for astacin, 0.5 nM and 26 µM for meprin β, 0.7 nM and 26 µM for ovastacin
What all share (conditions): both partners purified

The target in test [1] is T1, mouse ovastacin (mouse, UniProt Q6HA09 85-435).
T1 sequence (looked up): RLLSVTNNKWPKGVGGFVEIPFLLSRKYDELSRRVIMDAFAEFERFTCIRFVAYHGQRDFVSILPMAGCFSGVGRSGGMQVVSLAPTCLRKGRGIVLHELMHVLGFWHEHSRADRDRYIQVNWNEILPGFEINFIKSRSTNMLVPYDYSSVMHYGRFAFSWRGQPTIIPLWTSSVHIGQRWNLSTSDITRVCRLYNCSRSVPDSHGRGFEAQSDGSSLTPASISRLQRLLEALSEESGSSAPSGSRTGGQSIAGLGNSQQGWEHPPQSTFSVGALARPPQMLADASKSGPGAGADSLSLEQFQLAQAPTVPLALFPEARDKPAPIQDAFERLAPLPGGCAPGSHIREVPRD

Test [2] concerns the target T2, human meprin β (human, UniProt Q16820 62-652).
T2 sequence (looked up): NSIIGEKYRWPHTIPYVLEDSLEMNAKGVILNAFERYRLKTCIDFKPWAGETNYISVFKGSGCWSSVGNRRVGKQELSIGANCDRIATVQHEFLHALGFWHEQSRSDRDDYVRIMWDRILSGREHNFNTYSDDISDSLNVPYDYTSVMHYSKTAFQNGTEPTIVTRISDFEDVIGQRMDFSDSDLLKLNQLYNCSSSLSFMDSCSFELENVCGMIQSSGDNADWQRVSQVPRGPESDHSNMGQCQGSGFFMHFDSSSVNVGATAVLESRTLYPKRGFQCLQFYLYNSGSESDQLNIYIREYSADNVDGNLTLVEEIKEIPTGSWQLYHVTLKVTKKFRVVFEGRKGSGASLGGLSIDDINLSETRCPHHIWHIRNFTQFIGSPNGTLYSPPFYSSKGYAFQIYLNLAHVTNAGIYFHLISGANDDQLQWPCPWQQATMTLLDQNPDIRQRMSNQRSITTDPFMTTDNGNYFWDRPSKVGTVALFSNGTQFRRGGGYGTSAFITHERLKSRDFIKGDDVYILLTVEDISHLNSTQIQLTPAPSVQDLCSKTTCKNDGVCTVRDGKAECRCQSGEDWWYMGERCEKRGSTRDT

Test [3] has as its target T3, crayfish astacin (European freshwater crayfish Astacus …, UniProt P07584 50-251).
T3 construct: astacin, Astacus astacus, UniProt P07584; Carries a catalytic zinc ion; also called archetypal astacin; source: purified from the digestive fluid of the European freshwater crayfish Astacus astacus L

T3 sequence (P07584 50-251): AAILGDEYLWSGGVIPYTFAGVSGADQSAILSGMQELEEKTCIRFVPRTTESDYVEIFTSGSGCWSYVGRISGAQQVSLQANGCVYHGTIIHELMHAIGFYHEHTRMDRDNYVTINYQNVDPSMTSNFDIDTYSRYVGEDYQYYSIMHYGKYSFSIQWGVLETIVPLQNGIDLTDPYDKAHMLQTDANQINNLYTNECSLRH

B1: chimeric mutant mFBABA (other, mouse, UniProt P29699 19-136, looked up)
chain: APQGTGLGFRELACDDPEAEQVALLAVDYLNNHLLQGFKQVLNQIDKVKVWSRRPFGVVYEMEVDTLETTCHALDPTPLANCSVRQLTEHAVEGDCDFHILKQDGQFRVMHTQCHSTPVSKRKTHTTCPDCPSPIDLSNPSALEAATESLAKFNSKSPSKKYELVKVTKAMNQWVSGPAYYVEYLIKEAPCTKSQASCSLQHSDSEPVGICQGSTVQSSLRHVPLIQPVEKSVTVTCEFFESQPQPANANAVGPVPTANAALPADPPASVVVGPVVVPRGLSDHRTYHDLRHAFSPVASVESASGETLHSPKVGQPGAAGPVSPMCPGRIRHFKI
notes: mouse fetuin-A CY1 domain, UniProt P29699, residues A19-P136; mouse fetuin-B CY2 domain with linker, UniProt Q9QXC1, residues V145-Q269; mouse fetuin-A CTR domain, UniProt P29699, residues P254-I345; also called chimera of mouse fetuin-B with CY1 and CTR from mouse fetuin-A; source: adenovirus-infected COS-7 cells, purified (Ni-NTA)
B1: the “loss of inhibitory potency (change of Ki) against wild-type mouse fetuin-B” value is > 4 orders of magnitude in test [1], > 4 orders of magnitude in test [2] and > 3 orders of magnitude in test [3].

B2: mouse fetuin-B (natural protein, UniProt Q9QXC1 19-388, looked up)
chain: RSPPAPPLPQRPLSPLHPLGCNDSEVLAVAGFALQNINRDQKDGYMLSLNRVHDVREHYQEDMGSLFYLTLDVLETDCHVLSRKAQKDCKPRMFYESVYGQCKAMFHINKPRRVLYLPAYNCTLRPVSKRKTHTTCPDCPSPIDLSNPSALEAATESLAKFNSKSPSKKYELVKVTKAMNQWVSGPAYYVEYLIKEAPCTKSQASCSLQHSDSEPVGICQGSTVQSSLRHVPLIQPVEKSVTVTCEFFESQAQVPGDENPAVTQGPQKLPQKNTAPTSSPSVTAPRGSIQHLPELDDEKPEESKGGSPEEAFPVQLDLTTNPQGDTLDVSFLYLEPGDKKLVVLPFPGKEQRSAECPGPEKENNPLVLPP
modifications: N-glycans at N40 and N139
notes: mouse fetuin-B, UniProt Q9QXC1; residues R29-P388 (molecule B) and Q28-P388 (molecule D) are modelled in the complex; also called mFB; murine fetuin-B; source: baculovirus-transduced High Five cells, purified (Ni-NTA); not shown: His6, C-terminal, kept
As for B2, the figures for the inhibitory constant (Ki) in test [1], in test [2] and in test [3] were 0.046 nM, 0.081 nM and 0.1 nM, respectively.

B3: mouse fetuin-B P155A+D156A (natural protein, UniProt Q9QXC1 19-388, looked up)
chain: B2 chain with P137A, D138A
notes: also called mFB_(P155A,D156A); double mutant; source: ExpiCHO-S cells, purified (Ni-NTA)
For the molecule B3, the “loss of inhibitory potency (change of Ki) against wild-type mouse fetuin-B” value in test [1] was 4 orders of magnitude; in test [2], 4 orders of magnitude; in test [3] it was 2 orders of magnitude.

B4: mouse fetuin-B D156A (natural protein, UniProt Q9QXC1 19-388, looked up)
chain: B2 chain with D138A
notes: also called mFB_(D156A); source: ExpiCHO-S cells, purified (Ni-NTA)
As to B4, the “loss of inhibitory potency (change of Ki) against wild-type mouse fetuin-B” value in test [1] was ~4 orders of magnitude; in test [2], ~2 orders of magnitude; in test [3] it was ~2 orders of magnitude.

B5: mouse fetuin-B P155A (natural protein, UniProt Q9QXC1 19-388, looked up)
chain: B2 chain with P137A
notes: also called mFB_(P155A); source: ExpiCHO-S cells, purified (Ni-NTA)
Take B5: the figures for the “loss of inhibitory potency (change of Ki) against wild-type mouse fetuin-B” value in test [1], in test [2] and in test [3] were ~2 orders of magnitude, ~1 orders of magnitude and ~1 orders of magnitude, respectively.

Values taken from publication PMC6400186, “Structure of mammalian plasma fetuin-B and its mechanism of selective metallopeptidase inhibition” (IUCrJ, 2019).
